Substrate: CC[C@H](C)[C@H](NC(C)=O)C(=O)NCC(=O)N[C@@H](CC(N)=O)C(=O)N[C@@H](CCCNC(=N)N)C(=O)Nc1ccc(COc2ccc3c(c2)OC2=C(/C=C/C4=[N+](C)c5ccccc5C4(C)C)CCCC2=C3)cc1
Test: fluorogenic NIR assay, Michaelis-Menten fit
Format: biochemical, Homo sapiens
Details: Tris buffer pH 8, 37 °C, 20 nM hGzmA, cleaved after Arg

B1: human GzmA (hGzmA), active recombinant (Homo sapiens) (protein)
chain: IIGGNEVTPHSRPYMVLLSLDRKTICAGALIAKDWVLTAAHCNLNKRSQVILGAHSITREEPTKQIMLVKKEFPYPCYDPATREGDLKLLQLMEKAKINKYVTILHLPKKGDDVKPGTMCQVAGWGRTHNSASWSDTLREVNITIIDRKVCNDRNHYNFNPVIGMNMVCAGSLRGGRDSCNGDSGSPLLCEGVFRGVTSFGLENKCGDPRGPGVYILLSKKHLNWIIMTIKGAV
notes: active recombinant enzyme (not the pro-form), dimeric
  Km: 6.9±1.0×10^-6 M
  kcat: 0.26 ± 0.04 s⁻¹

Source: PMC10953043, “Fluorogenic Granzyme A Substrates Enable Real‐Time Imaging of Adaptive Immune Cell Activity” (Angewandte Chemie (Weinheim an Der Bergstrasse, Germany), 2023)
